One data set relates to renal cell line 786-0. The conditions noted are these: 786-0 renal cell line; publicly available GI50; cited from earlier work.
Another data set deals with renal cell line TK-10. As to conditions: TK-10 renal cell line; publicly available GI50; cited from earlier work.
The test system of another data set is 786-0 cells. Put plainly: Growth inhibition assay (CellTiter-Glo), topotecan after miR-367 modulation. Format: cell-based, human. As to conditions: 786-0 cells (topotecan sensitive, high miR-367), topotecan 48 hours, 24 hours after transfection. The protocol: (§1) miR-367 Transfection. Pre-miR-367 and Anti-miR-367 were purchased from Ambion. Log-phase cells (˜60% confluency) were transfected with 6.25 μM Pre-miR-367 or Anti-miR-367 using siPORT NeoFX transfection reagent (Ambion) at a final concentration of 50 nM according to manufacturer's instructions. Controls included transfection of a non-targeting miRNA (Negative Control #1).
(§2) Growth inhibition assay. Topotecan, obtained from Sequola Research Products Ltd, was dissolved in DMSO (Sigma) at concentration of 20 mM and stored at −20° C. Cells were seeded in 96-well plates (Nunc) at a density of 5×10^5 cells per ml and incubated overnight at 37° C. Cells were incubated with the indicated concentrations of topotecan for 48 hours and cell viability was analyzed using the CellTiter-Glo™ luminescent cell viability assay kit (Promega). Luminescence was recorded using Wallac Victor^2™ 1420 Multilabel Counter (Perkin Elmer Life Sciences). Wells containing medium without cells were used to obtain background luminescence. All experimental wells and controls were set up in triplet.
(§3) The effects of miR-367 modulation on topotecan-induced cell death and growth arrest were evaluated using the CellTiter-Glo' luminescent cell viability assay (FIG. 2). Twenty-four hours after transfection, cells were subject to 48 hours of topotecan treatment.

Another data set concerns TK-10 cells. Described as above. As to conditions: TK-10 cells (topotecan resistant, low miR-367), topotecan 48 hours, 24 hours after transfection. Format: cell-based, human. The procedure: as §1, §2, §3
For data set [1], the system named is miR-367. Put plainly: Real-time quantitative RT-PCR of miR-367 after transfection, 786-0 cells. The format is cell-based, human. As to conditions: 50 nM final, QPCR normalized to RNU44. The procedure: as §1
(§4) Real-time Quantitative RT-PCR of miRNA. Real-time Quantitative RT-PCR was used to validate successful miRNA transfection. TaqMan®MicroRNA Reverse Transcription kit (Applied Biosystems) was used to convert specific miRNAs to cDNA. RNU44 was used as control for quantification. Per Applied Biosystems' protocol, real-time PCR was performed adding 1.34 μl of each completed RT reaction to target TaqMan microRNA Assay reaction with TaqMan Universal PCR Master Mix (final reaction volume equal 20 μl). Samples (786-0 and TK-10 cell lines transfected with Pre-miR-367 precursor, Anti-miR-367 inhibitor, and Anti-miR-inhibitor Negative Control #1) were evaluated in triplicate and run on the Applied Biosystems 7900HT Fast Real-Time PCR System. Assay data was analyzed using SDS 2.2.2 software.

Data set [2] concerns miR-367. In words: Real-time quantitative RT-PCR of miR-367 after transfection, TK-10 cells. The format is cell-based, human. As to conditions: 50 nM final, QPCR normalized to RNU44. The protocol:
as §1, §4

Regarding `CC[C@@]1(O)C(=O)OCc2c1cc1n(c2=O)Cc2cc3c(CN(C)C)c(O)ccc3nc2-1` [Topotecan], the “log10 GI50” value is given as −7.903 in the data set with renal cell line 786-0 and −5.279 in the data set with renal cell line TK-10.

B1: Pre-miR-367: precursor of miR-367 purchased from Ambion; exemplified pre-miR367 precursor sequence SEQ ID NO:158 (nucleic acid)
chain: CCAUUACUGUUGCUAAUAUGCAACUCUGUUGAAUAUAAAUUGGAAUUGCACUUUAGCAAUGGUGAUGG
modifications: listed as RNA, chemistry not given here
B1: the “change in sensitivity to topotecan-induced cell death and growth arrest vs non-targeting control” value in the data set on 786-0 cells is “No differences in topotecan sensitivity”; in the data set with 786-0 cells (listed as pre-miR-367), “increase in topotecan-induced cell death”; in the data set with TK-10 cells, “significantly increased cell death and growth arrest induced by topotecan”; in the data set with TK-10 cells (listed as miR-367 precursor) it was “increased sensitivity to topotecan”; in the data set with TK-10 cells (listed as pre-miR-367) it was “increase in topotecan-induced cell death”; with TK-10 cells (listed as precursor to miR-367) it was “significant increase in topotecan-induced cell death and growth arrest”. Besides, the “miR-367 levels compared to non-targeting miRNA control” value in the data set on miR-367 [1] and in the data set with miR-367 [2] was “increase” each time.

The record behind these values is patent publication US20180207191A1, “HUMAN CANCER MICRO-RNA EXPRESSION PROFILES PREDICTIVE OF CHEMO-RESPONSE” (H. LEE MOFFITT CANCER CENTER AND RESEARCH INSTITUTE, INC., priority 2010, published 2018).
